What was measured:
murine IL-11 [1] = target: T1, murine IL-11 (mouse, UniProt P47873 22-199); assay: Tri-complex ELISA, mIL-11 + mIL-11Ra-Fc + mgp130-Fc, inhibition of complex formation
T1 construct: Invigate recombinant protein; biotinylated when immobilized in the Di-complex ELISA; also called mIL11; mIL-11
T1 sequence: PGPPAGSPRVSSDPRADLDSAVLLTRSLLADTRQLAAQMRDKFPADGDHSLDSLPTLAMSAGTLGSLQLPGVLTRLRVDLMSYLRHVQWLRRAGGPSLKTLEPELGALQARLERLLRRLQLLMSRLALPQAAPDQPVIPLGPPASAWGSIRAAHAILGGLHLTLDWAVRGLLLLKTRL
Protocol: (§1) In the Tri-complex ELISA format IL-11 antibodies are tested for their ability to inhibit the formation of a complex consisting of murine or human gp130-Fc fusion protein, with murine or human IL-11, and a murine IL11RA-Fc fusion protein. The assay format was adapted according to FIG. 18 (a, b), depending on whether murine or human IL-11 IgG antibodies were tested.
(§2) Bispecific antibodies were subjected to the experimental assay procedure described in Example 19 and IC50 [M], respectively efficacy (%) were calculated accordingly.

murine IL-11 [2] = target: T1, murine IL-11; assay: Di-complex ELISA, canine IL11RA-hFc binding to immobilized mIL-11, competition
Protocol: (§3) In the Di-complex ELISA format anti IL-11 antibodies are tested for the ability to interfere with the formation of complexes consisting of immobilized murine IL-11 (Invigate, e.g., lot #C210819-09) or human IL-11 (Invigate, e.g., lot #C121021-19), and murine IL11RA-Fc fusion proteins or canine IL11RA-human-Fc fusion protein (FIG. 17a, b).
(§4) Bispecific antibodies were subjected to the experimental assay procedure described in Example 18 and IC50 [M], respectively efficacy (%) were calculated accordingly.

human IL-11 [3] = target: T2, human IL-11 (human, UniProt P20809 22-199); assay: Tri-complex ELISA, hIL-11 + mIL-11Ra-Fc + hgp130-Fc, inhibition of complex formation
T2 construct: Invigate recombinant protein; biotinylated when immobilized in the Di-complex ELISA; also called hIL11; hIL-11
T2 sequence: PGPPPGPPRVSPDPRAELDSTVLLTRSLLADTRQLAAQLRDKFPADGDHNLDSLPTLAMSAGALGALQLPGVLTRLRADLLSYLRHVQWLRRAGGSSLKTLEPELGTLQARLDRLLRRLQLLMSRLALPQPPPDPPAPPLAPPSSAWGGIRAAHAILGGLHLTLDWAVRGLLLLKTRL
Protocol: as §1, §2

human IL2Ra = target: T3, human IL2Ra (human, UniProt P01589 22-240, limits assumed); assay: ELISA on coated IL2Ra, signal ratio to isotype control at 1E-07 M antibody
T3 construct: coated on the ELISA plate; also called IL-2 receptor alpha
T3 sequence (looked up): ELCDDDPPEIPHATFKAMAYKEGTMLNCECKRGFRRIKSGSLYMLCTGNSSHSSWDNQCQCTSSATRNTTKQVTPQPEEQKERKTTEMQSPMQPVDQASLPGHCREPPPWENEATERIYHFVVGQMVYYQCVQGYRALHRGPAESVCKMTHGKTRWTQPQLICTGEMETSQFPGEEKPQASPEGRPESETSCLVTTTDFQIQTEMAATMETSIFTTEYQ
Protocol: IL2RA (Peprotech, Germany, #200-02RC) was coated at 1 or 0 μg/ml (buffer only control) in 30 μl coating buffer (Candor, #113500) per well on a 384 well microtiter plate (Maxisorb, Nunc, #460518) over night at 4-8° C. After two washes with 50 μl/well washing buffer (PBS+0.05% Tween, pH 7.4), the plates were incubated for two hours at room temperature with 50 μl/well SmartBlock (Candor, #113500). After blocking, the plates were washed three times with washing buffer. Then, a dilution series of the respective antibody (1E-7 [M] down to 2E-13 [M]) in PBS+0.05% Tween, 10% SmartBlock were added in 30 μl to the microtiter plate and incubated for 90 min at room temperature. After three additional washes, 30 μl anti mouse IgG HRP-conjugated antibody (Biotechne, HAF007), diluted 1:1000 in PBS+0.05% Tween (pH 7.4), were added per well and incubated for one hour. After three additional washes, a mixture of Amplex red (Invitrogen, #12222, 10 mM stock solution in DMSO) 1:1000 diluted in PBS and H2O2 (30%, Merck, #107209)) diluted 1:10000 in PBS were added as substrate with 30 μl per well and incubated for 20 min in the dark. Relative fluorescence was measured with a microtiter plate reader at 535/590 nm.
Bispecific antibodies were subjected to the experimental assay procedure described in Example 20. Ratios of the signals generated at an antibody concentration of 1E-07 [M] by the respective bispecific antibody versus those of an isotype control antibody were calculated and are shown in Table E29. The bispecific antibodies show no binding to IL-2 Ra.

human IL-11 [4] = target: T2, human IL-11; assay: Di-complex ELISA, canine IL11RA-hFc binding to immobilized hIL-11, competition
Protocol: as §3, §4

cynomolgus IL-11 = target: T4, cynomolgus IL-11 (cynomolgus, UniProt P20808 22-199); assay: SPR (Biacore), 25 C, antibody captured via anti-Fc, IL-11 as analyte
T4 construct: Invigate recombinant protein; also called cIL11; Macaca IL-11
T4 sequence: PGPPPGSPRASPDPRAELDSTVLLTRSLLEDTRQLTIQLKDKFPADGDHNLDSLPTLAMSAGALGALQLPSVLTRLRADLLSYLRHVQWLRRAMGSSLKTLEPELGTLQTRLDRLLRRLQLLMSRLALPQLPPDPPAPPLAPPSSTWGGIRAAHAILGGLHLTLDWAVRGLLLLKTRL
Protocol: (§5) To assess the binding kinetics and affinity of anti-IL-11 bispecific antibodies as well as their species cross-reactivity profile, binding assays were conducted using surface plasmon resonance (SPR). […] Antibodies were captured either via anti-human Fc IgGs (“Human antibody capture kit”, Order No. BR100839, Cytiva) or via anti-mouse Fc IgGs (“Mouse antibody capture kit, Order No. BR100383, Cytiva) covalently amine coupled to a Series S CM5 sensor chip (Cytiva) depending on the isotype. The amine coupling was carried out according to the manufacturer's instructions using 1-ethyl-3-(3-dimethylaminopropyl) carbodiimide hydrochloride (EDC), N-hydroxysuccinimide (NHS) and ethanolamine HCl, pH 8.5 (“Amine Coupling Kit” BR-1000-50, Cytiva.). Human, mouse, cynomolgus or rat IL-11 was used as analyte at several dilutions within the concentration range from 0.05-200 nM. For binding assays with only one concentration 200 nM IL-11 was used. The sensor surface was regenerated with glycine pH 1.7 after each antigen injection. Obtained sensorgrams were double referenced (subtraction of reference flow cell signal and buffer injection) and were fitted to a 1:1 Langmuir binding model to derive kinetic data using the Biacore T200 Evaluation software or the Biacore Insight software.
(§6) If no value is reported, there was either no binding or very low binding and multiphasic binding behavior.

murine IL-11 [5] = target: T1, murine IL-11; assay: as above
Protocol: as §5, §6

human IL-11 [6] = target: T2, human IL-11; assay: as above
Protocol: as §5, §6

rat IL-11 = target: T5, rat IL-11 (rat, UniProt Q99MF5 22-199); assay: as above
T5 construct: Invigate recombinant protein; also called rIL11
T5 sequence: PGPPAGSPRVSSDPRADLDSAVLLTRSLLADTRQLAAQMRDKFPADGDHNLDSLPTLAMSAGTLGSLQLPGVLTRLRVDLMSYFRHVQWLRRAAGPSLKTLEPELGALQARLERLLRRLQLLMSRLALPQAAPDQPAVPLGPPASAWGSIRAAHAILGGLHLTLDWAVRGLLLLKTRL
Protocol: as §5, §6

murine IL-11 [7] = target: T1, murine IL-11; assay: cell-based or functional assay
human IL-11 [8] = target: T2, human IL-11; assay: cell-based or functional assay
[9] = target: T6, human IL-11 (Invigate, e.g., lot #C121021-19) (human, UniProt P20809 22-199); assay: SPR, Biacore 8K; antibody captured on anti-human IgG Fc chip, IL-11 analyte 0-50 nM, 1:1 fit
T6 construct: Bought protein; also called hIL-11; hIL11
T6 sequence: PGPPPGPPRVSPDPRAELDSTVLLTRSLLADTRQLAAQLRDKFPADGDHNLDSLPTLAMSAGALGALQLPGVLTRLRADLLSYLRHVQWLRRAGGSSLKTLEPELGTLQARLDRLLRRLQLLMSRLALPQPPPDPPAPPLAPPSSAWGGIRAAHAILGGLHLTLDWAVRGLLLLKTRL
Protocol: (§7) Antibody binding affinity to hIL-11 (Invigate, Germany, e.g., lot #C121021-19) and mIL-11 (Invigate, Germany, e.g., lot #C210819-09) was detected using Biacore 8K. Each antibody was captured on an anti-human IgG Fc antibody immobilized CM5 sensor chip (GE). hIL-11 and mIL-11 at different concentrations (0, 5, 15.82 and 50 nM) in 1×HBS-EP+ (pH 7.4) (GE healthcare) were injected over the sensor chip at a flow rate of 30 μL/min for an association phase of 120 s, followed by 200 s dissociation phase. The chip was then regenerated by 10 mM Glycine, pH 1.5 after each binding cycle.
The sensorgrams of blank surface and buffer channel were subtracted from the test sensorgrams. The experimental data was fitted by 1:1 model using Langmiur analysis. Molecular weight of 19.3 kDa was used to calculate the molar concentration of human and mouse IL-11.

[10] = target: T7, murine IL-11 (Invigate, e.g., lot #C210819-09) (mouse, UniProt P47873 22-199); assay: SPR, Biacore 8K; antibody captured on anti-human IgG Fc chip
T7 construct: Bought protein; biotinylated where captured on streptavidin plates; also called mIL-11; mIL11
T7 sequence: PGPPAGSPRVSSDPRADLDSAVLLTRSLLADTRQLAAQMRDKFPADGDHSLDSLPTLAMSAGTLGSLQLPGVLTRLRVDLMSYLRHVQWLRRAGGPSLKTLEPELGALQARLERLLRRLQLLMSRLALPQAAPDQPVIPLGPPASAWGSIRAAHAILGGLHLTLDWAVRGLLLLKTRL
Protocol: as §7

[11] = target: T6, human IL-11 (Invigate, e.g., lot …); assay: ELISA, receptor-Fc titrated on biotinylated IL-11 captured on streptavidin plate; species of IL-11 not said
[12] = target: T7, murine IL-11 (Invigate, e.g., lot …); assay: as above

B1: TPP-26195 (bispecific antibody, IgG1)
chain 1: EVQLLESGGGLVQPGGSLRLSCAASGFTFSSYGMHWVRQAPGKGLEWVSVISYDGSYKYYADSVKGRFTISRDNSKNTLYLQMNSLRAEDTAVYYCAAGVPDYWGQGTLVTVSSGGGGSGGGGSGGGGSQSVLTQPPSASGTPGQRVTISCTGSSSNIGAGYDVHWYQQLPGTAPKLLIYSNNERPSGVPDRFSGSKSGTSASLAISGLRSEDEADYYCAAWDDSLNGPVFGGGTKLTVLGGGGSGGGGSGGGGSGVECPPCPAPPVAGPSVFIFPPKPKDVLTITLTPKVTCVVVDISKDDPEVQFSWFVDDVEVHTAQTQPREEQFNSTFRSVSELPIMHQDWLNGKEFKCRVNSAAFPAPIEKTISKTKGRPKAPQVYTIPPPKEQMAKDKVSLWCMITDFFPEDITVEWQWNGQPAENYKNTQPIMDTDGSYFVYSKLNVQKSNWEAGNTFTCSVLHEGLHNHHTEKSLSHSPGK
chain 2: EVQLLESGGGLVQPGGSLRLSCAASGFTFSHYDMNWLRQAPGKGLEWVGVISYDGSNKFYADFVKGRFTISRDNSKNTLYLQMNSLRAEDTAVYYCARTPGSHFDYWGQGTLVTVSSGGGGSGGGGSGGGGSQSVLTQPPSASGTPGQRVTISCSGSSSNIGNNAVNWYQQLPGTAPKLLIYYDDLLPSGVPDRFSGSKSGTSASLAISGLRSEDEADYYCSAWDDSLNGVVFGGGTKLTVLGGGGSGGGGSGGGGSGVECPPCPAPPVAGPSVFIFPPKPKDVLTITLTPKVTCVVVDISKDDPEVQFSWFVDDVEVHTAQTQPREEQFNSTFRSVSELPIMHQDWLNGKEFKCRVNSAAFPAPIEKTISKTKGRPKAPQVYTIPPPKEQMAKDKVSLSCAITDFFPEDITVEWQWNGQPAENYKNTQPIMDTDGSYFVVSKLNVQKSNWEAGNTFTCSVLHEGLHNHHTEKSLSHSPGK
notes: scFv-kih-mIgG1
Efficacy (%) (murine IL-11 [1]): 98% | IC50 (murine IL-11 [1]): 0.258 nM | IC50 (murine IL-11 [2]): 4.1 nM | Efficacy (%) (human IL-11 [3]): 98% | IC50 (human IL-11 [3]): 1.28 nM | Ratio IL-2Ra Binding Signal Antibody/Isotype Control (human IL2Ra): 146 ratio | IC50 (human IL-11 [4]): 6.3 nM | Kd (cynomolgus IL-11): 0.074 nM | Kd (murine IL-11 [5]): 0.046 nM | Kd (human IL-11 [6]): 0.083 nM | Kd (rat IL-11): 0.045 nM | Efficacy (%), Stat3 reporter gene assay (murine IL-11 [7]): 96.9% | IC50, Stat3 reporter gene assay (murine IL-11 [7]): 1.8 nM | Efficacy (%), Stat3 reporter gene assay (human IL-11 [8]): 88.5% | IC50, Stat3 reporter gene assay (human IL-11 [8]): 0.65 nM

B2: TPP-31280 (antibody, human IgG4, V domains shown)
VH: EVQLLESGGGLVQPGGSLRLSCAASGFTFSHYDMNWLRQAPGKGLEWVGVISYDGSNKFYADFVKGRFTISRDNSKNTLYLQMNSLRAEDTAVYYCARTPGSHFDYWGQGTLVTVSS
VL: QSVLTQPPSASGTPGQRVTISCSGSSSNIGNNAVNWYQQLPGTAPKLLIYRDDLLPSGVPDRFSGSKSGTSASLAISGLRSEDEADYYCSAWDDSLNGVVFGGGTKLTVL
notes: consecutive numbering; also called VL-Y51R
Kd [9]: 600 nM | binding result [10]: no binding (tested: 50 nM (highest IL-11 concentration))

B3: canine IL11RA-human-Fc fusion protein (Sino Biological, #70078-D02H) (Fc fusion)
chain: SPCPQAWGPPGVQYGQPGRSMTLCCPGVTAGAPVSWFRDGETRLLQGPDSGLGHELVLAQADSTDEGTYICRTLDGALGGIVTLQLGYPPARPVVSCQAADYENFSCTWSPSQVSGLPTRYLTSYRKKTVPGADGQRMSPSTGPWPCPQDPPGAARCVVHGAEFWSQYRINVTEVNPLGTSTRLLDVSLQSILRPDPPQGLRVESVPGYPRRLRASWTYPASWPRQPHFLLRFRLQYRPAQHPAWSTVEPAGLEEVITDAVAGLPHAVRVSARDFLDAGTWSAWSPEAWGTPSTGSLPKEIPAGGQPRKQLEEEPQADSPTPPRPSLLPDPRPLDQRDPLEQIAVLA
notes: Used in the Di-complex ELISA when murine IgGs were tested; also called canine IL11RA-Fc; Canine IL-11Ra fused to human Fc; not shown: human Fc (and any linker) of the bought fusion protein, Sino Biological #70078-D02H
EC50 [11]: ~2 nM | EC50 [12]: ~2 nM

From patent US20240317847A1 (Bayer, published 2024)
